Data from publication PMC7115839, “An ATP-responsive metabolic cassette comprised of inositol tris/tetrakisphosphate kinase 1 (ITPK1) and inositol pentakisphosphate 2-kinase (IPK1) buffers diphosphosphoinositol phosphate levels” (Biochemical Journal, 2020).

Substrate: Nc1ncnc2c1ncn2[C@@H]1O[C@H](COP(=O)(O)OP(=O)(O)OP(=O)(O)O)[C@@H](O)[C@H]1O
Assay: HPLC of inositol phosphates, Michaelis-Menten fit
Format: biochemical, Arabidopsis thaliana
Settings: co-substrate Ins(3,4,5,6)P4 (preferred), 0.08-10 mM ATP, 1 mM MgCl2, HEPES pH 7.5, 25 C

B1: ITPK1 (AtITPK1) (Arabidopsis thaliana) (protein)
chain: MSDSIQERYLVGYALAAKKQHSFIQPSLIEHSRQRGIDLVKLDPTKSLLEQGKLDCIIHKLYDVYWKENLHEFREKCPGVPVIDLPEAIERLHNRVSMLEVITQLRFPVSDSERFGVPEQVVVMDSSVLSGGGALGELKFPVIAKPLDADGSAKSHKMFLIYDQEGMKILKAPIVLQEFVNHGGVIFKVYVVGDHVKCVKRRSLPDISEEKIGTSKGSLPFSQISNLTAQEDKNIEYGEDRSLEKVEMPPLSFLTDLAKAMRESMGLNLFNFDVIRDAKDANRYLIIDINYFPGYAKMPSYEPVLTEFFWDMVTKKNHV
notes: recombinant in E. coli Rosetta 2(DE3)pLysS, pOPINF, 3C-cleavable His tag (printed as C-terminal); Ni-NTA and Superdex 75
  Km: 770 ± 190 µM
